Here are results for three molecules from PMC3994186 (Oncogene, 2013).

The experiment addresses T1, His-tagged RAD51C (human, UniProt O43502 1-376).
T1 sequence: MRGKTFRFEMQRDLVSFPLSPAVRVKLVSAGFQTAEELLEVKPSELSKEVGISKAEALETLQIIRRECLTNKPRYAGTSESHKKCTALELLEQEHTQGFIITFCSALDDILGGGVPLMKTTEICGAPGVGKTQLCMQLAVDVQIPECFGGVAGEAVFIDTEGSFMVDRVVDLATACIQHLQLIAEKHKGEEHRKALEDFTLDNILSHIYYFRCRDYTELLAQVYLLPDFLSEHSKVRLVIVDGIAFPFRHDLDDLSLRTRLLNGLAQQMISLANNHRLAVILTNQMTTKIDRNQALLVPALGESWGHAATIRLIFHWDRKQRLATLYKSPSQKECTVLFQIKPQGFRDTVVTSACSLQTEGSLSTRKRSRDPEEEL
The experiment is described as follows: pull-down.

B1: MBP fused to the WD40 domain of PALB2 (amino acids 859-1186), wild type (domain or fragment)
chain: SELKNPSGSCSVDVSAMFWERAGCKEPCIITACEDVVSLWKALDAWQWEKLYTWHFAEVPVLQIVPVPDVYNLVCVALGNLEIREIRALFCSSDDESEKQVLLKSGNIKAVLGLTKRRLVSSSGTLSDQQVEVMTFAEDGGGKENQFLMPPEETILTFAEVQGMQEALLGTTIMNNIVIWNLKTGQLLKKMHIDDSYQASVCHKAYSEMGLLFIVLSHPCAKESESLRSPVFQLIVINPKTTLSVGVMLYCLPPGQAGRFLEGDVKDHCAAAILTSGTIAIWDLLLGQCTALLPPVSDQHWSFVKWSGTDSHLLAGQKDGNIFVYHYS
B1: the binding result is “binds”.

B2: MBP-PALB2 WD40 domain L939W (domain or fragment)
chain: SELKNPSGSCSVDVSAMFWERAGCKEPCIITACEDVVSLWKALDAWQWEKLYTWHFAEVPVLQIVPVPDVYNLVCVALGNWEIREIRALFCSSDDESEKQVLLKSGNIKAVLGLTKRRLVSSSGTLSDQQVEVMTFAEDGGGKENQFLMPPEETILTFAEVQGMQEALLGTTIMNNIVIWNLKTGQLLKKMHIDDSYQASVCHKAYSEMGLLFIVLSHPCAKESESLRSPVFQLIVINPKTTLSVGVMLYCLPPGQAGRFLEGDVKDHCAAAILTSGTIAIWDLLLGQCTALLPPVSDQHWSFVKWSGTDSHLLAGQKDGNIFVYHYS
Regarding B2, the binding result was “binds”.

B3: MBP-PALB2 WD40 domain T1030I (domain or fragment)
chain: SELKNPSGSCSVDVSAMFWERAGCKEPCIITACEDVVSLWKALDAWQWEKLYTWHFAEVPVLQIVPVPDVYNLVCVALGNLEIREIRALFCSSDDESEKQVLLKSGNIKAVLGLTKRRLVSSSGTLSDQQVEVMTFAEDGGGKENQFLMPPEETILTFAEVQGMQEALLGTIIMNNIVIWNLKTGQLLKKMHIDDSYQASVCHKAYSEMGLLFIVLSHPCAKESESLRSPVFQLIVINPKTTLSVGVMLYCLPPGQAGRFLEGDVKDHCAAAILTSGTIAIWDLLLGQCTALLPPVSDQHWSFVKWSGTDSHLLAGQKDGNIFVYHYS
For B3, the binding result is listed as “binds”.
